The record followed here is article PMC3248755.

Substrate in this data set: CSC(=N)NCCC[C@H](N)C(=O)O
Put plainly: steady-state kinetics. It counts as biochemical, Homo sapiens.

B1: human dimethylarginine dimethylaminohydrolase-1 (DDAH-1) (Homo sapiens) (protein)
chain: MAGLGHPAAFGRATHAVVRALPESLGQHALRSAKGEEVDVARAERQHQLYVGVLGSKLGLQVVELPADESLPDCVFVEDVAVVCEETALITRPGAPSRRKEVDMMKEALEKLQLNIVEMKDENATLDGGDVLFTGREFFVGLSKRTNQRGAEILADTFKDYAVSTVPVADGLHLKSFCSMAGPNLIAIGSSESAQKALKIMQQMSDHRYDKLTVPDDIAANCIYLNIPNKGHVLLHRTPEEYPESAKVYEKLKDHMLIPVSMSELEKVDGLLTCCSVLINKKVDS
In general, Km refers to the concentration of substrate that gives half-maximal velocity. For the protein B1, the Michaelis constant (Km) was 0.37 ± 0.03 µM.
